Results as given in paper PMC10975490 (Toxins, 2024).

Columns and labels:
[1] = target: Protobothrops flavoviridis leucine-rich α2-glycoprotein (LRG) (Protobothrops flavoviridis); assay: SDS-PAGE under reducing and non-reducing conditions
[2] = target: Protobothrops flavoviridis leucine-rich α2-glycoprotein (LRG) (Protobothrops flavoviridis); assay: SPR; BIAcore X; P. flavoviridis LRG amine-coupled to a CM5 chip; Cyt c or PLA2 as analyte; 25 °C; 50 mM HEPES, 0.05% Tween 20, pH 7.5, NaCl to ionic strength 0.2; 10 μL/min; 1:1 Langmuir model with drifting baseline, global fit; apparent Kd
[3] = target: Naja kaouthia leucine-rich α2-glycoprotein (LRG) (Naja kaouthia); assay: SDS-PAGE under reducing and non-reducing conditions
[4] = target: Gloydius brevicauda basic phospholipase A2 (Gloydius brevicauda); assay: inhibition of enzyme activity; PLA2 activity measured fluorometrically with 10-Pyrene-PC as substrate at various concentrations of LRG; apparent inhibition constant (Ki app) by non-linear least-squares analysis of relative PLA2 activity
[5] = target: Laticauda semifasciata leucine-rich α2-glycoprotein (LRG) (Laticauda semifasciata); assay: SDS-PAGE under reducing and non-reducing conditions
[6] = target: the molecule itself; assay: as above
[7] = target: T1, Protobothrops flavoviridis basic phospholipase A2 PL-X (Protobothrops flavoviridis, UniProt P06860 1-122); assay: inhibition of enzyme activity; PLA2 activity measured fluorometrically with 10-Pyrene-PC as substrate at various concentrations of LRG; apparent inhibition constant (Ki app) by non-linear least-squares analysis of relative PLA2 activity; settings: both partners purified
T1 construct: Group II basic phospholipase A2 PL-X from the venom of Protobothrops flavoviridis; also called P. flavoviridis PL-X
T1 sequence: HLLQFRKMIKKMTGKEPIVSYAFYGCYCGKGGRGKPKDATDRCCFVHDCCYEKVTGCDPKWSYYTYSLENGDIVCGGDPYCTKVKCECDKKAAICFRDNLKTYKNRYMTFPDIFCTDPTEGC

Chain of Gloydius brevicauda basic phospholipase A2 (Gloydius brevicauda) (O42187 17-138 limits assumed): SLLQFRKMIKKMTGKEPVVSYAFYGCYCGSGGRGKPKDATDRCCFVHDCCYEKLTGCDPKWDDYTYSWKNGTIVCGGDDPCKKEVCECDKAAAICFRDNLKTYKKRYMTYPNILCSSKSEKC

## Protobothrops flavoviridis leucine-rich α2-glycoprotein (LRG) (natural protein)
[1]
  stoichiometry N: 2

## Laticauda semifasciata cytochrome c (natural protein)
[2]
  Kd: 0.0149 nM

## Naja kaouthia leucine-rich α2-glycoprotein (LRG) (natural protein)
[3]
  stoichiometry N: 2
[4]
  Ki: 350 nM

## Elaphe climacophora leucine-rich α2-glycoprotein (PLIβ) (from UniProt C0STK7 24-332) (natural protein)
[4]
  Ki: 11.1 nM

## Laticauda semifasciata leucine-rich α2-glycoprotein (LRG) (natural protein)
[5]
  stoichiometry N: 2
[4]
  Ki: 1030 nM

B1: Elaphe quadrivirgata PLIβ (natural protein)
chain: VLYCPPDPAPENITEFVCNSPSLHEFPTGFPVRTKLISVEFTQVSSLGVEALQGLPNLQELHLSNNRLKTLLSGLFRNLPELHTLDLSTNLLEDLPPEIFTSTTSLTLLSISENRLAKLRLSWFETLKELRILSLDNNQLKEVPISCFDKLEKLTFLDLSSNRLHRLSPDMFSGLDNLERLSLENNPIRCIAPKSFHGRPKLSIISLKNCSLTNIITGVFQPLNHLVLLDLSDNELTMLDPPVAIPSANLSLDLTGNPWACNCRMDNLLTWVKEHKIDLYSKEEIVCAFPKSFKGEEATSLHRSQICPC
[6]
  stoichiometry N: 2

B2: Gloydius brevicauda leucine-rich α2-glycoprotein (PLIβ) (natural protein, UniProt O93233 24-331, looked up)
chain: VLYCPPTPAPENVTEFVCNSPSLHEFPTGFPARAKMISVEFTQVSSLGVEALQGLPNLQELHLSNNRLKTLPSGLFRNLPQLHTLDLSTNHLEDLPPEIFTNASSLILLPLSENQLAELHPSWFQTLGELRILGLDHNQVKEIPISCFDKLKKLTSLDLSFNLLRRLAPEMFSGLDNLEKLILESNPIQCIVGRTFHWHPKLTVLSLKNSSLTNIMGFFQPLEQLELLDLSDNELTTMEPPVYKTSANLSLDLSGNPWACDCRLDNLLTWVNEHNIHLYSKEEIVCASPKHFKGECATSLHKSQICPC
notes: PLIβ (snake LRG) of Gloydius brevicauda (Agkistrodon blomhoffii siniticus), from serum; also called G. brevicauda LRG; G. brevicauda PLIβ
[7]
  Ki: 26.1 nM
[6]
  stoichiometry N: 2
